From patent publication US20230074657A1

Biological target: Tag1-LAG3 protein (UniProt P18627)
Test: HTRF blocking assay (Cisbio kit): Tag1-LAG3 with Tag2-FGL1 and antibody

Chain of Tag1-LAG3 protein (P18627 23-450): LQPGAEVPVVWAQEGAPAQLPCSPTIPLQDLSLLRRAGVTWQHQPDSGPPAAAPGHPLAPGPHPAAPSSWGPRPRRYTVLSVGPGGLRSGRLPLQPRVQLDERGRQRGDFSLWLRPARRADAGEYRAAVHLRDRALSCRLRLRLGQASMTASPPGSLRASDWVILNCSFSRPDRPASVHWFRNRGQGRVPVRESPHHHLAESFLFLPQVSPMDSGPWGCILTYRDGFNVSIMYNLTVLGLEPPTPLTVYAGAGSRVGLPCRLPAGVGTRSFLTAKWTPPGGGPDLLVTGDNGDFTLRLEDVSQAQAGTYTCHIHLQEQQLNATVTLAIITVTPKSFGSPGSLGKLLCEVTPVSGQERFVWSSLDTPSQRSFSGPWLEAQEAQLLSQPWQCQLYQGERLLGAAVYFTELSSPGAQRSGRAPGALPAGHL

IC50 (read off the curve): 2 µg/mL
Substance: Positive control (ab40465) (antibody)
